This note sets out measurements from patent US20200102389A1 (Hoffmann-La Roche, published 2020).

For experiment [1], the target named is T1, recombinant soluble human HLA-G β2M MHC class I complex, monomer (human).
T1 construct: His tagged; also called HLA-G-0003
Description: competition ELISA, immobilised HLA-G monomer, antibody titrated, competitor c-myc ILT2. On the procedure:
(§1) Streptavidin coated plates (Nunc, MicroCoat #11974998001) were coated with 25 μl/well biotinylated human wt HLA-G at a concentration of 500 ng/ml and incubated at 4° C. overnight. After washing (3×90 μl/well with PB ST-buffer) 25 μl anti-HLA-G samples were added in decreasing concentrations starting at 8 μg/ml, then diluted in 1:3 steps and incubated 1 h at RT. After washing (3×90 μl/well with PBST-buffer) 25 μl/well c-myc-tagged recombinant ILT-2 receptor was added at a concentration of 150 ng/ml and incubated for 1 h at room temperature. After washing (3×90 μl/well with PBST-buffer) 25 μl/well goat-anti-c-myc-POD (Bethyl #A190-104P 1:7000 in OSE) was added and incubated at RT for 1 h on a shaker. After washing (6×90 μl/well with PBST-buffer), 25 μl/well TMB substrate (Roche, 11835033001) was added and incubated until OD 2-3. Measurement took place on a Tecan Safire 2 instrument at 370/492 nm
(§2) The ELISA was set up by coating the biotinylated antigen wt HLA-G to strepdavidin plates. After incubation and washing steps, the respective antibodies were bound in a concentration range from 8-0 μg in 1:3 dilution steps. C-myc tagged ILT-2 or -4 receptor was added to the HLA-G-antibody complexes. After incubation and washing steps, detection of bound receptor was carried out by anti-cmyc-antibody-POD conjugates. IC50 values were determined from the resulting inhibition curves at the antibody concentrations generating the half-maximal inhibition. In case of the non-biotinylated HLA-G dimer and trimer antigens, immobilization was carried out by random coating on assay plates.
(In an ELISA, binding on a coated surface is turned into a signal by an enzyme label.)

Experiment [2] deals with T1, recombinant soluble human HLA-G β2M MHC …. Description: SPR (Biacore T200), antibody captured via anti-Fc, HLA-G complex injected, 25 C, 1:1 fit. The method, then:
(§3) Binding kinetics of anti-HLA-G antibodies to human HLA-G, human HLA-G degrafted and human HLA-A2 were investigated by surface plasmon resonance using a BIACORE T200 instrument (GE Healthcare). All experiments were performed at 25° C. using PBS Buffer (pH 7.4+0.05% Tween20) as running buffer and PBS Buffer (+0.1% BSA) as dilution buffer. Anti-human Fc (JIR009-005-098, Jackson) or anti-rat Fc (JIR112-005-071, Jackson) or anti-Mouse Fc (JIR115-005-071, Jackson) antibodies were immobilized on a Series S CM5 Sensor Chip (GE Healthcare) at pH 5.0 by using an amine coupling kit supplied by GE Healthcare. Anti-HLA-G antibodies were captured on the surface leading to a capturing response of 50-200 RU. HLA-G molecules were injected for 180 s at 30 μl/min with concentrations from 2.5 up to 800 nM (2×1:2 and 4×1:3 dilution series) onto the surface (association phase). The dissociation phase was monitored for 300-600 sec by washing with running buffer. […] Bulk refractive index differences were corrected by subtracting the response obtained from a mock surface. Blank injections were subtracted (double referencing). The derived curves were fitted to a 1:1 Langmuir binding model using the BIAevaluation software.
(§4) The above table summarizes the antibody affinities and t1/2 values against wt and degrafted HLA-G as assessed by Surface plasmon resonance (Biacore) analysis. Binding kinetics of anti-HLA-G antibodies to human HLA-G, human HLA-G degrafted and human HLA-A2 were investigated by surface plasmon resonance using a BIACORE T200 instrument (GE Healthcare). All experiments were performed at 25° C. using PBS Buffer (pH 7.4+0.05% Tween20) as running buffer and PBS Buffer (+0.1% BSA) as dilution buffer. Anti-human Fc (JIR009-005-098, Jackson) or anti-rat Fc (JIR112-005-071, Jackson) or anti-Mouse Fc (JIR115-005-071, Jackson) antibodies were immobilized on a Series S CM5 Sensor Chip (GE
On the technique in general: In SPR one partner is held on a chip, and binding of the other changes the refractive index at the surface.

The target of experiment [3] is T2, recombinant soluble human HLA-G β2M MHC class I complex, trimer (human).
T2 construct: also called HLA-G Trimer; fraction A8
In words: blocking ELISA, Fc tagged ILT2 coated, 100 nM antibody, soluble HLA-G trimer. On the procedure: (§5) The ELISA was set up by coating the Fc tagged ILT2 and ILT4 respectively to Maxisorp microtiter plates. After incubation and washing steps, the respective antibodies were added at a concentration of 100nM. Soluble His tagged monomeric, dimeric or trimeric HLA-G was added to the wells. After incubation and washing steps, detection of bound receptor was carried out by anti-His-antibody-POD conjugates.

Experiment [4] deals with T1, recombinant soluble human HLA-G β2M MHC …. Description: competition ELISA, immobilised biotinylated wt HLA-G, competitor c-myc ILT2. On the procedure:
as §1, §2

Experiment [5] addresses T2, recombinant soluble human HLA-G β2M MHC …. Description: competition ELISA, immobilised HLA-G trimer, antibody titrated, competitor c-myc ILT4. The method, then: as §2
For experiment [6], the target named is T3, recombinant soluble human HLA-G β2M MHC class I complex, dimer (human).
T3 construct: also called HLA-G Dimer; fraction A9
Description: blocking ELISA, Fc tagged ILT4 coated, 100 nM antibody, soluble HLA-G dimer. On the procedure: as §5

The target of experiment [7] is T3, recombinant soluble human HLA-G β2M MHC …. Description: competition ELISA, immobilised HLA-G dimer, antibody titrated, competitor c-myc ILT2. The method, then:
as §2

Experiment [8] has the same target. In words: ELISA, HLA-G dimer coated on plate. On the procedure: The above table summarizes the binding of different rat anti-human HLA-G monoclonal antibodies, derived from wt protein IMS. Shown are the relative EC50 values [ng/ml] of the respective binding to rec. wt monomeric, dimeric and trimeric HLA-G proteins as assessed by ELISA. The ELISA was set up by coating the biotinylated wt HLA-G antigen to strepdavidin plates. After incubation and washing steps, the respective antibodies were bound in a concentration range from 10-0 μg in 1:2 dilution steps. Detection of bound antibodies was carried out by anti-Fc-antibody-POD conjugates. EC50 values were determined from the resulting binding curves at the antibody concentrations generating the half-maximal signal. In case of the non-biotinylated HLA-G dimer and trimer antigens, immobilization was carried out by random coating on assay plates.

The target of experiment [9] is T4, modified human HLA-G β2M MHC class I complex (HLA-G specific amino acids replaced by HLA-A consensus amino … (human)).
T4 construct: also called degrafted HLA-G
In words: SPR (Biacore T200), antibody captured via anti-Fc, degrafted HLA-G complex injected, 25 C, 1:1 fit. The method, then: as §3, §4

B1: HLA-G-0032 (antibody, V domains shown)
VH: QVQLQQSGAELVKPGSSVKISCKASGYSFPSYDMHWIKQQPGNGLEWIGWIYPGNGNTKYNQKFNGKASLTADKSSSTAYMQLSSLTSEDSAVYFCAKPTVATRYNWFAYWGQGTLVTVSS
VL: QIVLTQSPALMSASPGEKVTMTCSASSSVNYMHWYQQKPRSSPKPWIYLTSNLASGVPARFSGSGSGTSYSLTISTMEAEDAATYYCQQWSSNLPITFGSGTKLEIK
For orientation: IC50 means the concentration that inhibits the measured activity by half. The Kd is the constant that tells how readily two partners part at equilibrium. Broadly, the koff is the rate constant with which the complex falls apart. As usually defined, the kon is the rate constant with which the complex forms. A word on the EC50: it is the concentration at which the effect is half-maximal. As for B1, in experiment [1], the IC50 is 8.4 nM. Moreover, in experiment [2], the Kd is 14.9 nM, the off-rate (koff) came to 0.00076 s⁻¹, the on-rate (kon) is 51200 M⁻¹ s⁻¹ and the “t ½” value was found to be 15 min. Besides, in [3], the “% inh. ILT2” value amounted to 93%. Besides, the “% inh. ILT2 (3 µg/ml antibody)” value in experiment [4] was determined as 86.8%. Moreover, the IC50 in [5] amounted to 71.3 nM. The “% inh. ILT4” value in experiment [6] worked out at 62%. Moreover, the IC50 in experiment [7] was determined as 1.3 nM. The EC50 in experiment [8] turned out to be 1.36 nM.

B2: HLA-G-0037 (antibody, V domains shown)
VH: QVQLKESGPGLVQPSQTLSLTCSVSGFSLTTYSVSWVRQPPGKGLEWIGAIWSGGSTDYNSALKSRLRISRDTSKSQVLLKMNSLQTEDRAMYFCVRMNNKFGYWYFDLWGPGTMVTVSS
VL: DTVLTQSPTLAVSPGEKITISCRASETVSTMLHWYQQKPGQQPKLLISLASHLESGVPARFTGSGSGTDFTLTIDPVEADDTATYYCQQTWNDPLTFGSGTKLEIK
Consider B2, for which the Kd is 2120 nM in [9] and 6.75 nM in experiment [2]. The off-rate constant (koff) came out at 0.116 s⁻¹ in [9] and 0.000882 s⁻¹ in experiment [2]. In addition, the association rate constant (kon) was 54700 M⁻¹ s⁻¹ in experiment [9] and 131000 M⁻¹ s⁻¹ in experiment [2]. Further, the “t ½” value is 0.1 min in [9] and 13 min in experiment [2]. Further, the IC50 is 13 nM in experiment [1], more than 200 nM in [5] and 0.8 nM in [7]. In addition, the “% inh. ILT2” value in experiment [3] was 93%. For the same molecule, in experiment [4], the “% inh. ILT2 (3 µg/ml antibody)” value stood at 82.9%. Also, the “% inh. ILT4” value in experiment [6] turned out to be 61%. Also, the EC50 in experiment [8] was 2.01 nM.

B3: HLA-G-0033 (antibody, V domains shown)
VH: EVQLVETGGGLVQSGRSLKLSCVASGFTFNDYWMTWTRQAPGKGLEWVASITNSGGRTYYLDSVRGRFTISRDDAQNTLYLQMNSLRSEDTATYYCTKERIYLTAYWFFDFWGPGTMVTVSS
VL: DTILTQSPALAVSPGERVTISCRASESVSTLIHWYQQKPGQRPKLLIYLASHLESGVPARFSGSGSGTDFTLTIDPVEADDTATYYCQQSWNEPRTFGGGTKLELK
For B3, in [9], binding was put at a Kd of 3.62 nM, the koff was found to be 0.0345 s⁻¹, the kon is 9.54e+06 M⁻¹ s⁻¹ and the “t ½” value came to 0.3 min. In experiment [1], the IC50 was determined as 8 nM. Moreover, in [2], the Kd turned out to be 31.5 nM, the dissociation rate constant (koff) was determined as 0.00165 s⁻¹, the kon was 52300 M⁻¹ s⁻¹ and the “t ½” value stood at 7 min. For the same molecule, the “% inh. ILT2” value in experiment [3] turned out to be 93%. Further, the “% inh. ILT2 (3 µg/ml antibody)” value in experiment [4] was found to be 85.3%. In addition, in [5], the 50% inhibitory concentration (IC50) worked out at 61.5 nM. Further, the “% inh. ILT4” value in experiment [6] came to 70%. The IC50 in experiment [7] was 1.2 nM. For the same molecule, the 50% effective concentration (EC50) in [8] stood at 1.98 nM.
